Data: PMC10184639

Target: biotinylated CH848 DS SOSIP Trimer (HIV-1)
Test: SPR

B1: DH270.I5.6 Fab (Fab, V domains shown)
VH: QVQLVQSGAEVKKPGASVKVSCKASGYTFTDYYIHWVRQAPGQGLEWMGWINPNTGRTNSAQKFQGRVTMTRDTSISTAYMELSRLRSDDTAVYYCARGGWIGLYYDSSGYPNFDYWGQGTLVTVSS
VL: QSALTQPASVSGSPGQSITISCTGTSYDVGSYNLVSWYQQHPGKAPKLMIYEVSKRPSGVSNRFSGSKSGNTASLTISGLQAEDEADYYCCSYAGSSTVVFGGGTKLTVL
- fold improvement of the binding affinity relative to the UCA: 8 fold
